Experiment [1] has as its target T1, C-reactive protein (CRP) (Homo sapiens, UniProt P02741).
T1 sequence (P02741 19-224): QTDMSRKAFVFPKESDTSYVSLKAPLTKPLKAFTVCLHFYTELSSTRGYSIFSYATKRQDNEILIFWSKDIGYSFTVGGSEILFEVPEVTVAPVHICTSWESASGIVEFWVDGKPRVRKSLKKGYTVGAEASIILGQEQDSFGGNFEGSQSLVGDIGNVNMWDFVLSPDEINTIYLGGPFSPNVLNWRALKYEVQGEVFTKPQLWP
Nature of the experiment: Affinity measurements by surface plasmon resonance (Biacore T100, CRP immobilized on CM5 chip). It is filed as binding. As to conditions: CRP immobilized approx. 5000 RU; peptide 5 micromolar down to 2 nM; 25° C.; FIG. 8A. Here is the method:
Affinity measurements. Affinity measurements were performed using a Biacore T100 system and research grade CM5 sensor chips (GE Heathcare). The instrument was primed with HBS-EP+ (GE Heathcare) buffer. Flow cell 1 (or 3) was used as a reference to subtract nonspecific binding, drift, and the bulk refractive index, while flow cell 2 (or 4) was immobilized with CRP following standard procedures. A 1:1 mixture of 0.4 M EDC and 0.1 M NHS was used to activate flow cell 2 (or 4), and 0.1 mg/mL CRP solution was injected. Blocking of the remaining activated groups was done with a 1 M solution of ethanolamine (pH 8.5). CRP was immobilized onto the sensor chip surface by approximately 5000 response units (RU). The instrument was then primed using running buffer (HBS-EP+). Each of the 6-mer ligand candidates identified were dissolved in HBS-EP+ buffer to produce 5 micromolar peptide stock solutions for each peptide, which were serially diluted by a factor of 2 to produce a concentration series down to 2 nM. For a given affinity measurement, these series of peptide solutions successively were injected into flow cell 2 (or 4) for 3 min of contact time, 5 min of dissociation time, and 3.5 min of stabilization time using a flow rate of 100 microliter/min at 25° C. Flow cell 2 (or 4) was regenerated by glycine 2.5 (GE Healthcare) after injection of each peptide solution.
In general terms: SPR reads the build-up and loss of mass on a sensor chip optically.

Experiment [2] has as its target T1, C-reactive protein (CRP). Nature of the experiment: Dot blot selectivity/sensitivity assay with biotinylated 6-mer peptides. It is filed as binding. As to conditions: biotinylated 6-mer at 1 micromolar in 5% nonfat milk/TBS-T; CRP 20 micrograms to 2 ng per spot; FIG. 8B. The procedure:
Dot blot selectivity/sensitivity assays in serum. […] CRP solution was prepared as 10 mg/mL stocks in PBS buffer (pH 7.4). A dilution series of CRP solution was applied to a nitrocellulose membrane, typically ranging from 20 micrograms to 2 ng per spot. The membrane was blocked at room temperature for 2 h in 5% nonfat milk/TBS-T. The membrane was then washed with TBS-T. The biotinylated 6-mer solution was prepared at 1 micromolar in 5% nonfat milk/TBS-T and incubated over the membrane for 2 h at room temperature. After washing three times with TBS-T for 10 min, 1:3000 streptavidin-HRP (Abeam) prepared in 0.5% milk/TBS-T was added to the membrane and incubated for 2 h. After washing three times with TBS-T for 10 min, the membrane was treated with chemiluminescent reagents (Amersham ECL plus Western blotting detection reagents, GE Healthcare) and then immediately developed on film.

For “WKFRYK (Synthetic Peptide Fragment) [6-mer CRP ligand candidate from focused library A screening]”, the “binding affinity to CRP / response in SPR” value in experiment [1] is listed as “highest response”. In experiment [2], the “binding affinity to CRP / response in dot blot” value is “highest response”.

“LYFRRW (Synthetic Peptide Fragment) [6-mer CRP ligand candidate from focused library B screening]”: the “binding affinity to CRP / response in SPR” value in experiment [1] was “highest response”. In addition, the “binding affinity to CRP / response in dot blot” value in experiment [2] is reported as “highest response”.
